Measured values reported in the supplement of paper PMC10126150.
± gives the standard deviation of the averaged measurements.

test system: ATP; assay: switch fluorescence ratio, 500 uM ATP over buffer (Cy3 cluster intensity, sum of 5 cycles each) (fold (ratio)); higher = stronger signal-on switching upon ATP binding; sequences stand for … in TCGTCGGCAGCGTCAGATGTGTATAAGAGACAGTTTTTTTTTTTTTTTTTTTTTTTTT…TC; details: aptamer strand: ATP DNA aptamer (quencher-CACCTGGGGGAGTATTGCGGAGGAAGG + anchor), 100 nM annealed; ATP concentration: 500 uM
Outline: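 Per cluster, summed Cy3 intensity from the target cycles was divided by that from the buffer cycles to give the fluorescence ratio, then averaged per switch-domain sequence. Clusters outside 100-1000 RFU were excluded. The Cy3-labelled switching-strand clusters, on a modified Illumina MiSeq flow-cell, were annealed to 100 nM quencher-labelled ATP aptamer and imaged in selection buffer, then after 15 min with 500 uM ATP at 22 °C, for five cycles with NaOH stripping and re-annealing between them.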
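Also: ATP exposure 15 min at 22 °C before imaging.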

| Sequence | switch fluorescence ratio |
| --- | --- |
| ACACTTTACT | 1.32 ± 0.014 |
| GGGAAGTCGG | 0.9824 ± 0.0094 |
| CCCGGGGCTA | 1.08 ± 0.036 |
| GGCTTTGGAT | 0.977 ± 0.018 |
| GGCCGGGTTC | 1.01 ± 0.022 |
| GAATGGGGTA | 1.011 ± 0.0057 |
| TTTATACCAA | 1.038 ± 0.0089 |
| AGGGTTTTAT | 1.003 ± 0.0048 |
| GCTTGGGCAG | 1.02 ± 0.045 |
| ATAATTCATC | 1 ± 0.013 |
| TGTTTAAGGT | 0.9871 ± 0.0045 |
| AGCATTGTGA | 0.998 ± 0.051 |
| AGGAAAAACT | 1.02 ± 0.047 |
| TCCGTGAGTG | 1.07 ± 0.031 |
| TCAGTAAATT | 0.965 ± 0.055 |
| TTCGGAGTTG | 1 ± 0.022 |
| ATCTTAGGGT | 0.978 ± 0.039 |
| GTTTGGGTGC | 1.072 ± 0.0055 |
| CGATTTTGGC | 0.962 ± 0.049 |
| TATTGGTTTG | 1.04 ± 0.045 |
| ATGTATATAG | 0.978 ± 0.012 |
| CGTTCAATTA | 0.996 ± 0.027 |
| CAACGCATTT | 2.36 ± 0.44 |
| GTTGGGTGGA | 1.0356 ± 0.00032 |
| TTTATTCTTA | 0.9807 ± 0.0081 |
| GGGTATTGGA | 0.9828 ± 0.0047 |

| Sequence | switch fluorescence ratio |
| --- | --- |
| ATGAGCCACT | 0.994 ± 0.03 |
| CAGGAAAGCT | 1.234 ± 0.0051 |
| AGACATGTTT | 0.981 ± 0.014 |
| GCCTATAACT | 1.016 ± 0.0077 |
| TAGGGGAAGC | 0.989 ± 0.031 |
| GGGGAAATTT | 1.02 ± 0.028 |
| CATTACGGCG | 0.995 ± 0.043 |
| AGGATAGATA | 1 ± 0.012 |
| CGAGGGCAGG | 1.08 ± 0.06 |
| TTGTGCCGGT | 0.988 ± 0.037 |
| AGGCCCGTTT | 1.02 ± 0.029 |
| CTAGGACTTG | 0.945 ± 0.026 |
| TAGGCGGCAC | 1.03 ± 0.046 |
| TGGGCTTCGG | 0.9689 ± 0.0093 |
| CGAGTACGGT | 0.979 ± 0.028 |
| CTGGGCCCGG | 1.16 ± 0.27 |
| AAGAGGTCAG | 1.033 ± 0.0016 |
| AAAGGGAGTA | 0.999 ± 0.041 |
| CCCGACAGCC | 1.97 ± 0.3 |
| ATTTTTTTCT | 1.04 ± 0.04 |
| CTTGAAGTTA | 1 ± 0.011 |
| GGGGACCAAT | 1 ± 0.016 |
| ATCTGGGGTG | 1.02 ± 0.03 |
| AATTTTTCAG | 0.985 ± 0.018 |
| TTAGCATGTT | 1 ± 0.022 |
| CGTCTATTGT | 0.98 ± 0.046 |

| Sequence | switch fluorescence ratio |
| --- | --- |
| TATACGTCTA | 1.07 ± 0.043 |
| GGGAATTGTT | 0.977 ± 0.014 |
| GGAATTACTG | 1.04 ± 0.033 |
| AACCTGCGGA | 1.02 ± 0.011 |
| GACTGGGCGA | 1.02 ± 0.029 |
| TGGAGGGGAT | 1.02 ± 0.075 |
| CTAAAGGTTC | 1.05 ± 0.05 |
| ATTTTGTGTA | 1.005 ± 0.004 |
| TCTATTATTT | 1.03 ± 0.061 |
| CGGCGCCTGT | 1.01 ± 0.05 |
| TTTGAAGGG | 0.965 ± 0.012 |
| TTTGCGTGCA | 0.975 ± 0.011 |
| TTGGTTTACG | 1.02 ± 0.03 |
| TGGGTAATTG | 1.01 ± 0.019 |
| AATGATAGTT | 0.986 ± 0.02 |
| CAATCCTATC | 1.02 ± 0.034 |
| TCGGGACATC | 1.03 ± 0.032 |
| AAAGAGTGAT | 1.022 ± 0.0062 |
| GGTCGTTGAA | 1.02 ± 0.057 |
| ATGATTTTTT | 0.985 ± 0.012 |
| TTAGTGGCGA | 1.19 ± 0.31 |
| GTGGCAAAAG | 1.02 ± 0.033 |
| ATTCGTTTCT | 0.97 ± 0.013 |
| TCGCAGGGTG | 1.43 ± 0.47 |
| TTTCAGTGCA | 1.02 ± 0.029 |
| TGGGAAGGGC | 1.02 ± 0.03 |

| Sequence | switch fluorescence ratio |
| --- | --- |
| GTCATTAACT | 1.02 ± 0.027 |
| ATGGTTGTGC | 0.991 ± 0.026 |
| GGTCAGGGTC | 1.01 ± 0.062 |
| TGTCGGTTTT | 0.996 ± 0.037 |
| ATACCAGTG | 1.12 ± 0.055 |
| TTGGGGGGAA | 1.01 ± 0.025 |
| TGCTGCGGCT | 1.01 ± 0.019 |
| AGGGATCTGC | 0.966 ± 0.028 |
| GGTTGGCCCC | 1.02 ± 0.019 |
| GGAGGACTTT | 0.9826 ± 0.0028 |
| TGGCTTTTAC | 1.09 ± 0.056 |
| AGGTTGCGAG | 0.989 ± 0.019 |
| GCAGTTAGTT | 1.01 ± 0.033 |
| ATAGGATCTT | 0.996 ± 0.028 |
| GAAGGTGGGG | 0.992 ± 0.037 |
| TCCCAAATTT | 0.983 ± 0.032 |
| CTGGCACAGA | 0.988 ± 0.019 |
| GATTCGGCGT | 0.9867 ± 0.0067 |
| TAGTAGGAGT | 1.02 ± 0.035 |
| CAATGGACGT | 0.99 ± 0.029 |
| CAGTGGCCTA | 0.99094 ± 0.00045 |
| CCACGCCTGT | 1.09 ± 0.022 |
| GAATTAGCAC | 1.05 ± 0.038 |
| GGTTTCGACG | 1.01 ± 0.011 |
| TGCGTGTTTT | 1.03 ± 0.015 |
| GGAGATTGCA | 1.058 ± 0.0089 |

| Sequence | switch fluorescence ratio |
| --- | --- |
| TTACGGTGCC | 0.987 ± 0.03 |
| AGTAGGCGGT | 0.993 ± 0.023 |
| GTTTGTTTTT | 0.976 ± 0.032 |
| TAGAATCGGG | 0.9758 ± 0.0078 |
| ATCCTCGATT | 0.964 ± 0.0095 |
| TTGGGTCCTT | 0.993 ± 0.026 |
| CGATTCTTGG | 0.99932 ± 5.1e-05 |
| GGGTTGAAAA | 0.999 ± 0.039 |
| AGGAAGGTCG | 0.969 ± 0.013 |
| CTCTATTGAT | 0.997 ± 0.017 |
| CATTATTTAG | 1.01 ± 0.033 |
| TGTAATTGGT | 1.003 ± 0.0089 |
| ATATAAGGGT | 1.02 ± 0.015 |
| GGGTGGAAGT | 0.981 ± 0.023 |
| TCGTATGTTT | 0.985 ± 0.021 |
| TGGTTAAGGG | 1 ± 0.041 |
| TTTGGGGCGC | 1.01 ± 0.048 |
| TTTTTTCTTT | 1.01 ± 0.033 |
| GCCGTAGGGC | 0.985 ± 0.011 |
| GGGTAGCTCT | 1.06 ± 0.076 |
| TGCCCGTACG | 1 ± 0.033 |
| TTTAAGTTTG | 0.989 ± 0.029 |
| ACATACGAAC | 1.38 ± 0.098 |
| TCGGGTTTGG | 1.01 ± 0.041 |
| ATTGTTGGTT | 0.974 ± 0.019 |
| GTTACGAGTT | 0.977 ± 0.012 |

| Sequence | switch fluorescence ratio |
| --- | --- |
| TCGGACCCTA | 1.03 ± 0.041 |
| GAAGGGGTTT | 0.999 ± 0.03 |
| CGGCTTGGGG | 1 ± 0.015 |
| TACAGTGAGC | 1.026 ± 0.0019 |
| TGCGTGTGGG | 1.0208 ± 0.001 |
| AGACGGGGCC | 1.01 ± 0.018 |
| CAAAGACACA | 0.985 ± 0.012 |
| TTGGGTTTGG | 0.986 ± 0.015 |
| TGATGTATCA | 1.01 ± 0.08 |
| TTCTTTGACT | 0.983 ± 0.024 |
| AGGGAGTGGG | 0.968 ± 0.027 |
| TGAGGATGGG | 0.975 ± 0.026 |
| CAACTAGTGG | 0.978 ± 0.037 |
| AGTAGGGGCG | 1.03 ± 0.033 |
| TTTTAACCTA | 1.01 ± 0.019 |
| CGGGCGCTGG | 0.995 ± 0.018 |
| GACATGAAGG | 1 ± 0.015 |
| GCGCTATGAG | 1.04 ± 0.02 |
| ATGGTGCGGC | 1.008 ± 0.0018 |
| TTGGTTCTGA | 1.021 ± 0.0036 |
| ATTGTTTGTC | 0.996 ± 0.064 |
| CAGTTGCTGA | 0.999 ± 0.011 |
| CAGGTTACGC | 1.01 ± 0.027 |
